Experimental data: CN115558029A
Like-named read-outs stand apart in the source and are kept apart here.

How the values were obtained:
[1] = target: 人PD-1蛋白(北京百普赛斯，货号PD1-H5221) (human) (UniProt Q15116); test: binding ELISA on coated PD-1 protein
[2] = target: 人PD-1蛋白(北京百普赛斯，货号PD1-H5221) (human) (UniProt Q15116); test: binding ELISA on coated PD-1 protein; remark: listed apart in the source
[3] = target: PD-1 on Jurkat/PD-1细胞(Promega) (UniProt Q15116); test: cell-based or functional assay
[4] = target: 人PD-1蛋白(北京百普赛斯，货号PD1-H5221) (human) (UniProt Q15116); test: binding ELISA on coated PD-1 protein; remark: listed apart in the source
[5] = target: 人PD-1蛋白(北京百普赛斯，货号PD1-H5221) (human) (UniProt Q15116); test: binding ELISA on coated PD-1 protein; remark: listed apart in the source
[6] = target: PD-1 on Jurkat/PD-1细胞(Promega) (UniProt Q15116); test: cell-based or functional assay; remark: listed apart in the source
[7] = target: PD-1 on Jurkat/PD-1细胞(Promega) (UniProt Q15116); test: cell-based or functional assay; remark: listed apart in the source
[8] = target: 人PD-1蛋白(北京百普赛斯，货号PD1-H5221) (human) (UniProt Q15116); test: binding ELISA, human PD-1 protein coated at 1 μg/mL, anti-human IgG (Fc)-HRP

- EC50 [1]: 0.0164 µg/mL
- EC50 [2]: 0.0122 µg/mL
- EC50, PD-1报告基因法 [3]: 0.2 µg/mL
- EC50, 报告基因法 (CHO/PD-L1 + Jurkat/PD-1, One-Glo luminescence) [3]: 0.2 to 0.5 µg/mL
- EC50 [4]: 0.0073 µg/mL
- EC50 [5]: 0.0053 µg/mL
- EC50, PD-1报告基因法 [6]: 0.5 µg/mL
- EC50, PD-1报告基因法 [7]: 0.4 µg/mL
- EC50 [8]: 0.0202 µg/mL
B1: PD-1VHH抗体克隆huVHH3-3 (VHH, part only; not given: format as tested, part only)
VHH, part: EVQLVESGGGLVQPGGSLRLSCAASGRTSSMYAMGWFRQAPGNEREFVAGIGWENNTPYYARSVEGRFTISRDNVKNTVFLQMNRLRAEDTAVYYCAAQIGISGTLGDYWGQGTQVTVSS
